Laboratory results from patent publication US20070105771A1 (Y S THERAPEUTICS, published 2007).
“And” between values parts separate entries of the source, which are not always exact repeats. Equal entries are not always repeated.

Tests used:
[1] = target: human CD26 on the cell surface (human, UniProt P27487 1-766); test: cell-based or functional assay
[2] = target: T1, human CD26-derived 13 mer peptide 14 (human); test: peptide microarray
T1 peptide: NNILVFNAEYGNS
Experimental: (§1) The overnight incubation was followed by three washings with each of PBS buffer pH 7.5 and water. The microarrays were then scanned using ArrayWorx-Microarray Scanner.
(§2) The SPOT recognition software package ArrayPro was used for data analysis. The mean of signal intensities from 3 identical subarrays on each microarray image was used for data evaluation.

[3] = target: T2, human CD26-derived 13 mer peptide 18 (human); test: peptide microarray
T2 peptide: EYGNSSVFLENST
Experimental: as §1, §2

[4] = target: T3, human CD26-derived 13 mer peptide 44 (human); test: peptide microarray
T3 peptide: IYDLNKRQLITEE
Experimental: as §1, §2

[5] = target: T4, human CD26-derived 13 mer peptide 22 (human); test: peptide microarray
T4 peptide: LENSTFDEFGHSI
Experimental: as §1, §2

[6] = target: T5, human CD26-derived 13 mer peptide 9 (human); test: peptide microarray
T5 peptide: SDHEYLYKQENNI
Experimental: as §1, §2

[7] = target: T6, human CD26-derived 13 mer peptide 46 (human); test: peptide microarray
T6 construct: also called NKRQL1TEERIPN
T6 peptide: NKRQLITEERIPN
Experimental: as §1, §2

[8] = target: T7, human CD26-derived 13 mer peptide 111 (human); test: peptide microarray
T7 peptide: FFVVNTDSLSSVT
Experimental: as §1, §2

[9] = target: T8, human CD26-derived 13 mer peptide 16 (human); test: peptide microarray
T8 peptide: VFNAEYGNSSVFL
Experimental: as §1, §2

[10] = target: T9, human CD26-derived 13 mer peptide 25 (human); test: peptide microarray
T9 peptide: DEFGHSINDYSIS
Experimental: as §1, §2

[11] = target: T10, human CD26-derived 13 mer peptide 118 (human); test: peptide microarray
T10 peptide: ATSIQITAPASML
Experimental: as §1, §2

[12] = target: T11, human CD26-derived 13 mer peptide 32 (human); test: peptide microarray
T11 peptide: DGQFILLEYNYVK
Experimental: as §1, §2

[13] = target: T12, human CD26-derived 13 mer peptide 110 (human); test: peptide microarray
T12 peptide: VKFFVVNTDSLSS
Experimental: as §1, §2

[14] = target: T13, human CD26-derived 13 mer peptide 114 (human); test: peptide microarray
T13 peptide: DSLSSVTNATSIQ
Experimental: as §1, §2

[15] = target: T14, human CD26-derived 13 mer peptide 27 (human); test: peptide microarray
T14 peptide: HSINDYSISPDGQ
Experimental: as §1, §2

[16] = target: T15, human CD26-derived 13 mer peptide 105 (human); test: peptide microarray
T15 peptide: YPKAGAVNPTVKF
Experimental: as §1, §2

[17] = target: T16, human CD26-derived 13 mer peptide 120 (human); test: peptide microarray
T16 peptide: QITAPASMLIGDH
Experimental: as §1, §2

[18] = target: T17, human CD26-derived 13 mer peptide 71 (human); test: peptide microarray
T17 peptide: TGKEDIIYNGITD
Experimental: as §1, §2

[19] = target: T18, human CD26-derived 13 mer peptide 24 (human); test: peptide microarray
T18 peptide: TFDEFGHSINDYS
Experimental: as §1, §2

[20] = target: T19, human CD26-derived 13 mer peptide 26 (human); test: peptide microarray
T19 peptide: FGHSINDYSISPD
Experimental: as §1, §2

[21] = target: T20, human CD26-derived 13 mer peptide 119 (human); test: peptide microarray
T20 peptide: SIQITAPASMLIG
Experimental: as §1, §2

[22] = target: T21, human CD26-derived 13 mer peptide 45 (human); test: peptide microarray
T21 peptide: DLNKRQLITEERI
Experimental: as §1, §2

[23] = target: T22, human CD26-derived 13 mer peptide 116 (human); test: peptide microarray
T22 peptide: SVTNATSIQITAP
Experimental: as §1, §2

[24] = target: T23, human CD26-derived 13 mer peptide 23 (human); test: peptide microarray
T23 peptide: NSTFDEFGHSIND
Experimental: as §1, §2

[25] = target: T24, human CD26-derived 13 mer peptide 103 (human); test: peptide microarray
T24 peptide: VRVPYPKAGAVNP
Experimental: as §1, §2

[26] = target: T25, human CD26-derived 13 mer peptide 87 (human); test: peptide microarray
T25 peptide: GTFLAYAQFNDTE
Experimental: as §1, §2

[27] = target: T26, human CD26-derived 13 mer peptide 21 (human); test: peptide microarray
T26 peptide: VFLENSTFDEFGH
Experimental: as §1, §2

[28] = target: T27, human CD26-derived 13 mer peptide 19 (human); test: peptide microarray
T27 peptide: GNSSVFLENSTFD
Experimental: as §1, §2

[29] = target: T28, human CD26-derived 13 mer peptide 47 (human); test: peptide microarray
T28 peptide: RQLITEERIPNNT
Experimental: as §1, §2

[30] = target: T29, Purified recombinant human CD26 (rhDipeptidyl peptidase IV), R&D Systems CAT #1180-SE (human, UniProt P27487 29-766); test: SPR (Biacore), CD26 on CM5 chip, Fab injected
T29 construct: Bought recombinant protein; also called hu-CD26; soluble human CD26
T29 sequence (P27487 29-766 limits assumed): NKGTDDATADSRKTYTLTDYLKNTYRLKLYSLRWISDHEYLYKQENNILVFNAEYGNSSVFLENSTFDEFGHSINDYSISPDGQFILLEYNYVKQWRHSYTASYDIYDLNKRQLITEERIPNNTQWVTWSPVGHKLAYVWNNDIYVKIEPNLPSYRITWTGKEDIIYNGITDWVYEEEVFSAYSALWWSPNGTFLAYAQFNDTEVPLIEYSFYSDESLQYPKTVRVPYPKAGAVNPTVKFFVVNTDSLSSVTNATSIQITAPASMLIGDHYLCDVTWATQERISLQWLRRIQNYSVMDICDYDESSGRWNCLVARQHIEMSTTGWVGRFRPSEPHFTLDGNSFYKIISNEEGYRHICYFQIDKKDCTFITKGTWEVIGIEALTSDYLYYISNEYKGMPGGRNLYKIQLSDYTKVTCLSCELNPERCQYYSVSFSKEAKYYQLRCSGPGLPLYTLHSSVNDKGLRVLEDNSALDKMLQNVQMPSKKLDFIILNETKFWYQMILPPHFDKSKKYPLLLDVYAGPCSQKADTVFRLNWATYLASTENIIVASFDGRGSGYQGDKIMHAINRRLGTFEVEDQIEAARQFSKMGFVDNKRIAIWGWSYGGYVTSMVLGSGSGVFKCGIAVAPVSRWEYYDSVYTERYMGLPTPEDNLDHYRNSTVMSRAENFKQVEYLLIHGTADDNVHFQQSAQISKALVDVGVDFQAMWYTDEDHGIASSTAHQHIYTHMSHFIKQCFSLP
Experimental: (§3) Fabs produced in E. coli as described below were diluted in PBS in a concentration of ˜0.5 μM for the assay. A typical recording included a 3 minute period of injection of the Fab followed by a period of 15 minutes of dissociation, and analysis was performed based on the raw data of the binding curves accordingly.

[31] = target: T29, Purified recombinant human CD26 …; test: SPR (Biacore), CD26 preoccupied by the Fab; competitor 14D10 ascites
Text: A specificity analysis of selected Fabs comprising pairs of variant VH and VL sequences was done. […] The analysis was done using Biacore® as described in Example 1.

[32] = target: T29, Purified recombinant human CD26 …; test: SPR (Biacore), Fab
Experimental: as §3

[33] = target: T29, Purified recombinant human CD26 …; test: SPR (Biacore), Fab; remark: listed apart in the source
[34] = target: T29, Purified recombinant human CD26 …; test: SPR (Biacore), Fab; remark: listed apart in the source
Experimental: as §3
The CD26 binding partner was as shown below.

[35] = target: T29, Purified recombinant human CD26 …; test: SPR (Biacore), Fab; remark: listed apart in the source

human CD26 on the cell surface, sequence (P27487 whole entry): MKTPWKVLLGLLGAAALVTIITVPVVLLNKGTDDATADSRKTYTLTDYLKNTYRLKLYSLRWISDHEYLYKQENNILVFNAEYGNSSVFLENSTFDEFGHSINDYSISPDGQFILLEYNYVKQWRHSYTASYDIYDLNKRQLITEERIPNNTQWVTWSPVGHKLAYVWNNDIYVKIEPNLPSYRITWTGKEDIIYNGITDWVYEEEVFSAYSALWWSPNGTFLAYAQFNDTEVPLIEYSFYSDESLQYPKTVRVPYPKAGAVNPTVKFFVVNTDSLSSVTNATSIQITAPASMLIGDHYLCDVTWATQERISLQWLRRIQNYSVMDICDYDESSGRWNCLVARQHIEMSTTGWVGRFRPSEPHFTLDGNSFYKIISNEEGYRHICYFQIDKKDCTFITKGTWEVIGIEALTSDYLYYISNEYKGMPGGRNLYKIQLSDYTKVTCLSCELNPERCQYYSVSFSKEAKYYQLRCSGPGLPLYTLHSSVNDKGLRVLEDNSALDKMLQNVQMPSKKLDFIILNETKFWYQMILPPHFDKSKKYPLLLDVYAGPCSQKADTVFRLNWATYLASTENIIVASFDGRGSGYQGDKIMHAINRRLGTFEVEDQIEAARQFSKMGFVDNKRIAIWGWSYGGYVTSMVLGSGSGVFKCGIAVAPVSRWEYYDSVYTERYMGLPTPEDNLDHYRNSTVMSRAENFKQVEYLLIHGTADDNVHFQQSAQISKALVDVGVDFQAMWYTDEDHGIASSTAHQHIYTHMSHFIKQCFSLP

B1: rhuMAb 420 (antibody, human IgG1, V domains shown)
VH: EVQLVESGGGVKQPGETLRLTCTASGFSLSTYGVHWVRQAPGKGLEWVGVIWGDGRTDYDAAFMSRVTISKDTSKSTVYLQMNSLRAEDTAVYYCMRNRHDWFDYWGQGTTVTVSS
VL: EIEMTQSPSSLSVSAGERATISCSASQDIRNSLNWYQQKPGQAPRLLIYYSSNLHTGVPARFSGSGSGTDFTLTISRLEPEDVAIYYCQQSNKLPLTFGSGTKVEIKR
notes: X420 VH and X380 VL with human IgG1 and human kappa constant regions; also called X420 (IgG1)
0: Mean Signal Value [2] | Mean Signal Value [3] | Mean Signal Value [4] | Mean Signal Value [5] | Mean Signal Value [6] | Mean Signal Value [7] | Mean Signal Value [8] | Mean Signal Value [9] | Mean Signal Value [10] | Mean Signal Value [11] | Mean Signal Value [12] | Mean Signal Value [13] | Mean Signal Value [14] | Mean Signal Value [15] | Mean Signal Value [16] | Mean Signal Value [17] | Mean Signal Value [18] | Mean Signal Value [19] | Mean Signal Value [20] | Mean Signal Value [21] | Mean Signal Value [22] | Mean Signal Value [23] | Mean Signal Value [24] | Mean Signal Value [25] | Mean Signal Value [26] | Mean Signal Value [27] | Mean Signal Value [28] | Mean Signal Value [29]
9.2%: percent inhibition, MTT assay, Jurkat CD26+ cells, 0.5 ug/ml [1]
15.9%: percent inhibition, MTT assay, Jurkat CD26+ cells, 5 ug/ml [1]
3.7%: percent inhibition, MTT assay, Jurkat CD26+ cells, 0.05 ug/ml [1]
9.6%: percent inhibition, MTT assay, Jurkat CD26+ cells, 0.25 ug/ml [1]
16.6%: percent inhibition, MTT assay, Jurkat CD26+ cells, 2.5 ug/ml [1]

B2: CM03 Fab X369 (Fab, V domains shown)
VH: QVKLQESGPGLVQPSQTLSITCTVSGFSLTTYGVHWVRQSPGKGLEWLGVIWGGGRTDYDAAFISRLSISKDNSKSQVFFKMNSLQANDTAIYYCVRNRHDWFDYWGQGTTVTVSS
VL: DIQMTQSPSSLSASLGDRVTITCSASQGIRNSLNWYQQKPDGAVKLLIYYSSNLHSGVPSRFSGSGSGTDFSLTISNLEPEDIATYYCQQSIKLPFTFGSGTKLEIK
notes: Recombinant Fab made in E. coli; also called CM03 X369; CM03 (X369)
1.63 nM: Kd [30] | Kd [32] | Kd [33] | Kd [34]
1.63 nM and 1.6 nM: Kd [35]
≥ 80%: percent decrease in binding of 14D10 to CD26 [31]
